# T1: flag-tagged mouse LAP (mouse)
# T1 construct: also called recombinant mouse latency associated protein (LAP); mouse latency associated peptide
# T1 chain: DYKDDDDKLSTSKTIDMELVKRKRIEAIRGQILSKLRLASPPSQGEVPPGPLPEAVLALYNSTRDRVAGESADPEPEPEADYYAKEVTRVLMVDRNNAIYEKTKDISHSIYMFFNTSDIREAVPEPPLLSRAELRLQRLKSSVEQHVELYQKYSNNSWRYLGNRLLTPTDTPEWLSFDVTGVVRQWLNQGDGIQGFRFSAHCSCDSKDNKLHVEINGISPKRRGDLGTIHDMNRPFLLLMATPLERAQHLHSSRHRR
# Assays:
# flag-tagged mouse LAP = molecular target: T1, flag-tagged mouse LAP; test: ELISA, plate coated with mouse LAP, anti-human IgG-HRP detection
# human mature TGF-beta 1 = molecular target: T2, human mature TGF-beta 1 (human, UniProt P01137 279-390); test: ELISA, plate coated with human mature TGF-beta 1, anti-human IgG-HRP detection
# T2 construct: mature
# T2 sequence (P01137 279-390 limits assumed): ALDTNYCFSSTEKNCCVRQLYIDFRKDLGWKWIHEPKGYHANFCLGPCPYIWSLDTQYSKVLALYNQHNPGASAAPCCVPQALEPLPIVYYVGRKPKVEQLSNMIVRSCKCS
# Method: (§1) 384-well plate was coated with mouse or human mature TGF-beta 1 for overnight at 4 degree C., and then washed four times with PBS-T. After washing, the plate was blocked with blocking buffer (1×TBS/Tween-20+0.5% BSA+1× Block ace) for at least 1 hour at room temperature, and then washed four times with PBS-T. After washing, an antibody solution was added to the plate and incubated for 2 hours at room temperature, and then washed four times with PBS-T. After washing, diluted secondary antibody (goat anti-human IgG-HRP, Abcam, Cat. ab98624) was added to the plate and incubated for 1 hour at room temperature, and then washed four times with PBS-T. After washing, TMB solution was added to the plate and incubated for 15 minutes at room temperature, then 1N sulfuric acid was added to stop the reaction. The absorbance (optical density; OD) was measured at 450 nm/570 nm.
# mouse mature TGF-beta 1 = molecular target: T3, mouse mature TGF-beta 1 (mouse, UniProt P04202 279-390); test: ELISA, plate coated with mouse mature TGF-beta 1, anti-human IgG-HRP detection
# T3 construct: mature
# Method: as §1
# [1] = molecular target: T4, flag-tagged cynomolgus monkey latent TGF-beta 1 (cynomolgus monkey, UniProt P01137 34-390 (human entry), limits assumed); test: SPR Biacore 8k, antibody captured by anti-human kappa, latent TGF-beta 1 (SLC) as analyte, 37 C, 1:1 model
# T4 construct: also called monkey latent TGF-beta 1 (SLC); Cyno latent TGF-beta 1
# Method: (§2) Mouse anti-human Ig kappa light chain antibody (BD Pharmingen) was immobilized onto all flow cells of a CMS sensor chip using amine coupling kit (GE Healthcare). […] All antibodies and analytes were prepared in ACES pH 7.4 containing 20 mM ACES, 150 mM NaCl, 0.05% Tween 20, 0.005% NaN₃. Assay temperature was set at 37 degrees C. Sensor surface was regenerated each cycle with 10 mM Glycine-HCl, pH2.1. Binding activity was determined by processing and fitting the data to 1:1 binding model using Biacore Insight Software, version 1.1.1.7442 (GE Healthcare).
# [2] = molecular target: T5, flag-tagged mouse latent TGF-beta 1 (mouse, UniProt P04202 34-390); test: as above
# T5 construct: also called mouse latent TGF-beta 1 (SLC); mSLC
# Method: as §2
# [3] = molecular target: T6, flag-tagged human latent TGF-beta 1 (human, UniProt P01137 34-390); test: as above
# T6 construct: Small latent complex: homodimer of LAP and mature TGF-beta 1 held non-covalently; also called human latent TGF-beta 1 (SLC); hSLC
# Method: as §2
binding result (flag-tagged mouse LAP),binding result (human mature TGF-beta 1),binding result (mouse mature TGF-beta 1),Kd [1] [nM],koff [1] [s⁻¹],kon [1] [M⁻¹ s⁻¹],Kd [2] [nM],koff [2] [s⁻¹],kon [2] [M⁻¹ s⁻¹],Kd [3] [nM],koff [3] [s⁻¹],kon [3] [M⁻¹ s⁻¹],Binder
binds,no binding (tested: 10 ug/mL),no binding (tested: 10 ug/mL),1,0.000326,325000,1.1,0.000319,292000,1.13,0.00043,381000,"hT0947AE08-SG191 (antibody, IgG1, V domains shown, Humanized, optimized IgG1; also called hT0947AE08-5G191) VH: QVQLVESGGGVVQPGRSLRLSCAASGFTFSSYAMNWIRQPPGKGLEWIGYIYTSGTRYRANWARGRFTISRDNSKNTLYLQMNSLRAEDTAVYYCARGTDIYDYYYWVMDLWGPGTLVTVSS VL: DIQMTQSPSSLSASVGDRVTITCQASQSISTYLAWYQQKPGQPPKLLIYAASTLESGVPSRFSGSGSGTDFTLTISSLQPEDFATYYCQSYSDGDSVGFGQGTKVEIKR"
binds,no binding (tested: 10 ug/mL),no binding (tested: 10 ug/mL),2.24,0.000659,294000,1.6,0.000388,243000,2.15,0.000727,339000,"hT0947AE09-SG191 (antibody, IgG1, V domains shown, Humanized, optimized IgG1; also called hT0947AE09-5G191; hT0947A09-SG191) VH: QVQLVESGGGVVQPGRSLRLSCAASGFTFSSYAMNWIRQPPGKGLEWIGYIYTSGTRYRANWARGRFTISRDNSKNTLYLQMNSLRAEDTAVYYCARGTDIYDYYYWVMDLWGPGTLVTVSS VL: DIQMTQSPSSLSASVGDRVTITCQASQSISTYLAWYQQKPGQPPKLLIYAASTLESGVPSRFSGSGSGTDFTLTISSLQPEDFATYYCQSYSDADSVGFGQGTKVEIKR"
binds,–,no binding (tested: 10 ug/mL),–,–,–,1.89,–,–,–,–,–,"hT0947AE04-SG191 (antibody, IgG1, V domains shown, Humanized, optimized IgG1) VH: QVQLVESGGGVVQPGRSLRLSCAASGFTFSSYAMNWIRQPPGKGLEWIGYIYTSGTTYHANWARGRFTISRDNSKNTLYLQMNSLRAEDTAVYYCARGTFIWDYYYWVMDLWGPGTLVTVSS VL: DIQMTQSPSSLSASVGDRVTITCQASQSISTYLAWYQQKPGQPPKLLIYKASTLESGVPSRFSGSGSGTDFTLTISSLQPEDFATYYCQSYSDADSVGFGQGTKVEIKR"
